The supplement of paper PMC10266784

B1: library; numbered along this chain (parent)
chain: MAAAAAAAAEQQSSNGPVKKSMREKAVERRSVNKEHNSNFKAGYIPIDEDRLHKTGLRGRKGNLAICVIILLFILAVINLIITLVIWAVIRIGPNGCDSMEFHESGLLRFKQVSDMGVIHPLYKSTVGGRRNENLVITGNNQPIVFQQGTTKLSVENNKTSITSDIGMQFFDPRTQNILFSTDYETHEFHLPSGVKSLNVQKASTERITSNATSDLNIKVDGRAIVRGNEGVFIMGKTIEFHMGGNMELKAENSIILNGSVMVSTTRLPSSSSGDQLGSGDWVRYKLCMCADGTLFKVQVTSQNMGCQISDNPCGNTH

Variants of: B1
Experiment: SGCB cell-surface expression functional score (HA stain, bin4 vs bin1, normalised to synonymous) (log10 ratio); higher = more cell-surface SGCB (functional)
Summary of the method: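 Human beta-sarcoglycan, tagged with HA and fused to YFP, was built into codon-saturation libraries and delivered by lentivirus at MOI <0.1 into HEK293 cells that stably express alpha-, gamma- and delta-sarcoglycan. After 72 hours, YFP-positive cells were sorted and grown for 5–7 days, then stained on ice with Alexa Fluor 647 anti-HA, fixed, sorted into four 5% intensity bins and amplicon-sequenced. Each variant's functional score is the log ratio of its frequency in the highest bin to that in the lowest bin, taken as the median across codons and transductions. Transductions were done in duplicate, and synonymous variants were scaled per section to mean 0, SD 0.5.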

SGCB cell-surface expression functional score (log10): each site, then its substitutions
L179: I -0.73 | A 0.06 | Y -0.54 | T -1.12 | G -0.53 | Q -0.03 | H -1.99 | R 0.67 | P -0.55 | M -1.01 | K 0.28 | W 1.37 | D -1.87 | N -1.22 | E -1.07 | F 0.08 | S -1.32 | V -0.27
T175: N -0.16 | A 0.26 | E -0.42 | M -0.5 | I -0.13 | R 0.24 | Q 1.26 | H 0.32 | P -1.3 | W 1.12 | K -0.54 | L 0.08 | D -0.47 | S -0.04 | C -0.43 | G 0.14 | F 0.17 | Y 0.07 | V -0.16
F189: E -1.49 | H -1.03 | V -1.22 | S -1.1 | L -0.46 | G -1.93 | Q -1.04 | A -0.91 | T -1.23 | N -2.42 | I -1.15 | P -0.39 | Y -0.98 | K -2.58 | R -2.1 | M -0.25 | W -1.38 | D -1.52 | C -1.67
E185: A 0.2 | D 0.34 | P 0.33 | L -0.11 | F -0.44 | R -0.63 | N -0.3 | G -0.26 | H -1.02 | Y 0.02 | Q -0.17 | C 0.41 | M -1.36 | S 0.53 | I -0.23 | W -0.87 | K -0.01 | V -0.42 | T -1.1
I178: P 0.29 | V 0.68 | K -0.57 | Y -1.19 | L 0.3 | D -0.82 | C -0.6 | S -1.13 | R -0.26 | H -0.39 | G -0.44 | M -0.88 | T -0.41 | E -2.31 | A -1.66 | F -0.92 | N -0.4 | W -1.15 | Q -0.75
N177: E 0.19 | I 0.12 | T 0.39 | P -1.5 | V 0.4 | D 0.12 | Y 0.11 | M -0.24 | F -0.18 | G 0.05 | Q 1.3 | W -0.44 | C 0.09 | H 0.09 | K -0.45 | S 0.02 | L 0.29 | R 0.42 | A 0.49
H187: I -0.51 | C 0.07 | V 0.03 | N -0.57 | A -0.81 | T -1.03 | M -0.22 | L -1.47 | R -0.76 | Q -0.38 | Y -0.18 | W 0.48 | P -1.29 | K -0.37 | S -0.12 | F -0.63 | G -1.69 | D 0.45 | E 0.18
T182: Q -1.49 | F -2.63 | C -2.09 | S -1.55 | D -2.4 | P -1.25 | I -1 | W -1.65 | R -1.25 | Y -2.23 | N -1.25 | K -0.75 | M -1.87 | L -1.43 | G -1.06 | V -1.47 | A -1.25 | H -1.44 | E -1.6
Q176: S -0.24 | F -0.66 | A 0.1 | Y -0.78 | M -0.21 | G 0.46 | E 0.27 | P -0.31 | K -0.32 | W -0.21 | V -0.31 | R 0.16 | T -0.34 | L -0.17 | C 1.06 | H -0.38 | N 0.38 | I -0.61 | D 0.07
F180: M -1.82 | Y -1.77 | C -1.87 | T -1.29 | D -1.86 | S -1.41 | V -2.01 | L -0.42 | P -1.31 | G -1.85 | I -1.72 | R -1.76 | Q -1.66 | H -2.25 | N -2.28 | A -2.1 | E -1.03 | K -1.78
T186: L -0.15 | R 0.06 | K 0.28 | F -0.05 | A 0.54 | Y 0.08 | H 0.62 | C -0.92 | P -1.73 | I 0.3 | W -1.12 | E 0.13 | G -0.44 | M -1.55 | V -0.85 | S -0.18 | N -0.55 | D 0.53 | Q 0.7
E188: P -0.15 | I -1.93 | K -0.62 | V -0.11 | C -1.07 | W -0.68 | S -0.61 | Q 0.29 | A -1.13 | D -0.04 | N -0.55 | H -0.17 | G -0.55 | T -0.38 | Y -1.16 | M -2.13 | F -1.65 | L -1.16 | R -0.8
S181: L -1.37 | N -1 | W -1.97 | A 0.2 | I -1.25 | D -0.41 | E -1.4 | F -1.53 | G -0.94 | M 0.13 | V -1.52 | K -1.64 | Y -1.76 | C -0.89 | Q -1.57 | T -0.51 | P -1.69 | H -1.65 | R -0.87
D183: A 1.15 | E 0.35 | K -0.36 | P -1.43 | C -1.17 | S -0.22 | N -0.15 | W 0.54 | Y -0.53 | V -0.86 | I -1.89 | G -1.31 | Q -0.56 | H -0.33 | F -1.63 | R -0.21 | T -0.79 | L -0.71 | M -0.83
Y184: Q -0.78 | D -0.8 | A -0.95 | H -0.69 | E -0.73 | G -1.39 | M -1.01 | L -1.63 | C -0.8 | T -1.17 | I -1.85 | F 0.26 | N -1.22 | P -0.93 | S -1.04 | V -2.52 | K -1.77 | R -1.19
P173: R -0.47 | Q 0.62 | N -0.77 | W -1.02 | L -0.21 | Y -0.68 | F -0.34 | H 0.19 | I -0.68 | T -0.17 | G -0.17 | K -0.93 | S 0.5 | M 0 | V 0.67
H190: E -0.09 | R 0.34 | W -0.79 | A -0.38 | M -0.84 | K 0.07 | F 0.15 | P 0.42 | V -0.28 | C -0.62 | Q 0.16 | L -0.13 | S 0.28 | D -0.59 | T 0.55 | I -0.36 | G 0.07 | N 0.89
R174: G -0.63 | D -0.81 | T 0.3 | S -0.45 | Q -1.07 | A 0.02 | M 0.09 | P -0.77 | F -0.97 | E -0.22 | Y -0.17 | C -0.43 | H -0.58 | K 0.08 | N -1.48 | W -0.75 | V -0.32 | I -0.15 | L 0.05
